For 1 substance, specific killing via NKG2D: killing of C1R/ULBP1 (37%) minus killing of C1R/Mock (20%) by primary bulk NK culture NK-A.K., effector-to-target ratio 5:1, PI co-staining of CFSE-labelled target cells results are on record in paper PMC2680030.

The target of this assay is ULBP1 (UniProt Q9BZM6).
UniProt Q9BZM6, sequence (Q9BZM6 26-216): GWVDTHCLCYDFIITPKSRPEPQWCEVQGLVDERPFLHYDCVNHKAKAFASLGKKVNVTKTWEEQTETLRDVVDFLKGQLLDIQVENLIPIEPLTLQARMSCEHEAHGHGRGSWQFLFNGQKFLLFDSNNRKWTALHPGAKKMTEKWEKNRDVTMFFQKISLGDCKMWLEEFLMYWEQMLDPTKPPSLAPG

NKG2D, sequence (P26718 whole entry): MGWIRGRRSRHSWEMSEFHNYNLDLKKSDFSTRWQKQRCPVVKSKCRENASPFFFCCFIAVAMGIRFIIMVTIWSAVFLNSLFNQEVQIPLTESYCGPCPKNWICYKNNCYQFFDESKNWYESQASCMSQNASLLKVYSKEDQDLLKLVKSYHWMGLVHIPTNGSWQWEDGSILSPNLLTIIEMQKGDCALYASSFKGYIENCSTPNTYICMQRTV

For the substance “NKG2D (from UniProt P26718 1-216) (receptor)”, the specific killing via NKG2D: killing of C1R/ULBP1 (37%) minus killing of C1R/Mock (20%) by primary bulk NK culture NK-A.K., effector-to-target ratio 5:1, PI co-staining of CFSE-labelled target cells worked out at 17%.
